The target of the data set is GST-SF1KQ (EhSF1 KH-QUA2 domain) (Entamoeba histolytica) (UniProt C4M4V3). Kind of data set: EMSA. To be noted: EMSA: 50 ug protein (Fig 4), 200 fmol probe, 20 min (+10 min with U2 snRNA); binding buffer as in Ortuno-Pineda 2012, not given; UV crosslinking at pH 7.6 or …. Background: Mobility shift assays separate free from complexed probe on a gel.

The text below walks through data of PMC9247205.

In the case of “AACUUUUAUUU [E. histolytica RabX13 intron BS probe (P+)]”, the binding signal worked out at 50%.

For “UAUACUAACAA [yeast canonical BS probe (C+)]”, the binding signal amounted to 50%.
